Data reported in the Human Domainome abundance scans (Beltran et al. 2025).
± gives the uncertainty stated by the source.

B1: LIM and senescent cell antigen-like-containing domain protein 2, residues 13 to 71; numbered along this chain, Q7Z4I7 (parent)
chain: AVCQRCQARFSPAERIVNSNGELYHEHCFVCAQCFRPFPEGLFYEFEGRKYCEHDFQML

Variants of: B1
Test: abundance fitness (aPCA) (normalised: wild type 0, dead -1); higher = more abundant; growth selection in yeast, the domain comes from the species named
Conditions: Homo sapiens

AVCQRCQARFSPAERIVNSNGELYHNHCFVCAQCFRPFPEGLFYEFEGRKYCEHDFQML [E26N] and AVCQRCQARFSPAERIVNSNGELYHYHCFVCAQCFRPFPEGLFYEFEGRKYCEHDFQML [E26Y] are within error of each other in abundance fitness: -0.395 ± 0.27 for the first, -0.115 ± 0.18 for the second.

AVCQRCQARFSPAERIVNSNGELYHDHCFVCAQCFRPFPEGLFYEFEGRKYCEHDFQML [E26D] and AVCQRCQARFSPAERIVNSNGELYHCHCFVCAQCFRPFPEGLFYEFEGRKYCEHDFQML [E26C] are within error of each other in abundance fitness: -0.114 ± 0.19 for the first, -0.51 ± 0.21 for the second.

AVCQRCQARFSPAERIVNSNGELYHRHCFVCAQCFRPFPEGLFYEFEGRKYCEHDFQML [E26R] and AVCQRCQARFSPAERIVNSNGELYHTHCFVCAQCFRPFPEGLFYEFEGRKYCEHDFQML [E26T] are within error of each other in abundance fitness: -0.237 ± 0.073 for the first, -0.164 ± 0.1 for the second.

Going from AVCQRCQARFSPAERIVNSNGELYHFHCFVCAQCFRPFPEGLFYEFEGRKYCEHDFQML [E26F] to AVCQRCQARFSPAERIVNSNGELYHVHCFVCAQCFRPFPEGLFYEFEGRKYCEHDFQML [E26V], the abundance fitness rises from -0.293 ± 0.12 to 0.022 ± 0.068.

AVCQRCQARFSPAERIVNSNGELYHKHCFVCAQCFRPFPEGLFYEFEGRKYCEHDFQML [E26K] and AVCQRCQARFSPAERIVNSNGELYHIHCFVCAQCFRPFPEGLFYEFEGRKYCEHDFQML [E26I] are within error of each other in abundance fitness: -0.125 ± 0.1 for the first, -0.084 ± 0.17 for the second.

Going from AVCQRCQARFSPAERIVNSNGELYHPHCFVCAQCFRPFPEGLFYEFEGRKYCEHDFQML [E26P] to AVCQRCQARFSPAERIVNSNGELYHSHCFVCAQCFRPFPEGLFYEFEGRKYCEHDFQML [E26S], the abundance fitness rises from -0.294 ± 0.093 to -0.051 ± 0.072.

AVCQRCQARFSPAERIVNSNGELYHLHCFVCAQCFRPFPEGLFYEFEGRKYCEHDFQML [E26L] and AVCQRCQARFSPAERIVNSNGELYHWHCFVCAQCFRPFPEGLFYEFEGRKYCEHDFQML [E26W] are within error of each other in abundance fitness: -0.401 ± 0.065 for the first, -0.547 ± 0.14 for the second.

Compared with AVCQRCQARFSPAERIVNSNGELYHGHCFVCAQCFRPFPEGLFYEFEGRKYCEHDFQML [E26G], AVCQRCQARFSPAERIVNSNGELYWEHCFVCAQCFRPFPEGLFYEFEGRKYCEHDFQML [H25W] is lower in abundance fitness: -0.353 ± 0.083 for the first, -0.568 ± 0.1 for the second.

AVCQRCQARFSPAERIVNSNGELYVEHCFVCAQCFRPFPEGLFYEFEGRKYCEHDFQML [H25V] and AVCQRCQARFSPAERIVNSNGELYTEHCFVCAQCFRPFPEGLFYEFEGRKYCEHDFQML [H25T] are within error of each other in abundance fitness: -0.838 ± 0.1 for the first, -0.808 ± 0.12 for the second.

AVCQRCQARFSPAERIVNSNGELYYEHCFVCAQCFRPFPEGLFYEFEGRKYCEHDFQML [H25Y] and AVCQRCQARFSPAERIVNSNGELYSEHCFVCAQCFRPFPEGLFYEFEGRKYCEHDFQML [H25S] are within error of each other in abundance fitness: -0.786 ± 0.26 for the first, -0.894 ± 0.095 for the second.

AVCQRCQARFSPAERIVNSNGELYHEGCFVCAQCFRPFPEGLFYEFEGRKYCEHDFQML [H27G] and AVCQRCQARFSPAERIVNSNGELYHEPCFVCAQCFRPFPEGLFYEFEGRKYCEHDFQML [H27P] are within error of each other in abundance fitness: -0.294 ± 0.23 for the first, -0.228 ± 0.33 for the second.

AVCQRCQARFSPAERIVNSNGELYHEVCFVCAQCFRPFPEGLFYEFEGRKYCEHDFQML [H27V] and AVCQRCQARFSPAERIVNSNGELYHERCFVCAQCFRPFPEGLFYEFEGRKYCEHDFQML [H27R] are within error of each other in abundance fitness: -0.001 ± 0.31 for the first, -0.016 ± 0.18 for the second.

AVCQRCQARFSPAERIVNSNGELYHETCFVCAQCFRPFPEGLFYEFEGRKYCEHDFQML [H27T] and AVCQRCQARFSPAERIVNSNGELYHEFCFVCAQCFRPFPEGLFYEFEGRKYCEHDFQML [H27F] are within error of each other in abundance fitness: -0.227 ± 0.39 for the first, -0.209 ± 0.43 for the second.

AVCQRCQARFSPAERIVNSNGELYHEACFVCAQCFRPFPEGLFYEFEGRKYCEHDFQML [H27A] and AVCQRCQARFSPAERIVNSNGELYHEQCFVCAQCFRPFPEGLFYEFEGRKYCEHDFQML [H27Q] are within error of each other in abundance fitness: -0.175 ± 0.25 for the first, 0.148 ± 0.31 for the second.

Going from AVCQRCQARFSPAERIVNSNGELYHESCFVCAQCFRPFPEGLFYEFEGRKYCEHDFQML [H27S] to AVCQRCQARFSPAERIVNSNGELYHEHIFVCAQCFRPFPEGLFYEFEGRKYCEHDFQML [C28I], the abundance fitness falls from -0.227 ± 0.29 to -0.728 ± 0.2.

AVCQRCQARFSPAERIVNSNGELYHEHSFVCAQCFRPFPEGLFYEFEGRKYCEHDFQML [C28S] and AVCQRCQARFSPAERIVNSNGELYHEHEFVCAQCFRPFPEGLFYEFEGRKYCEHDFQML [C28E] are within error of each other in abundance fitness: -0.832 ± 0.13 for the first, -0.62 ± 0.12 for the second.

First: AVCQRCQARFSPAERIVNSNGELYHEHWFVCAQCFRPFPEGLFYEFEGRKYCEHDFQML [C28W]
Second: AVCQRCQARFSPAERIVNSNGELYHEHMFVCAQCFRPFPEGLFYEFEGRKYCEHDFQML [C28M]
The abundance fitness of the first is lower: -0.996 ± 0.21 for the first, -0.418 ± 0.15 for the second.

AVCQRCQARFSPAERIVNSNGELYHEHGFVCAQCFRPFPEGLFYEFEGRKYCEHDFQML [C28G] and AVCQRCQARFSPAERIVNSNGELYHEHVFVCAQCFRPFPEGLFYEFEGRKYCEHDFQML [C28V] are within error of each other in abundance fitness: -0.987 ± 0.14 for the first, -0.77 ± 0.098 for the second.

Compared with AVCQRCQARFSPAERIVNSNGELYHEHRFVCAQCFRPFPEGLFYEFEGRKYCEHDFQML [C28R], AVCQRCQARFSPAERIVNSNGELYHEHHFVCAQCFRPFPEGLFYEFEGRKYCEHDFQML [C28H] is higher in abundance fitness: -0.718 ± 0.092 for the first, -0.089 ± 0.31 for the second.

First: AVCQRCQARFSPAERIVNSNGELYHEHLFVCAQCFRPFPEGLFYEFEGRKYCEHDFQML [C28L]
Second: AVCQRCQARFSPAERIVNSNGELYHEHDFVCAQCFRPFPEGLFYEFEGRKYCEHDFQML [C28D]
The abundance fitness of the first is lower: -1.08 ± 0.13 for the first, -0.322 ± 0.2 for the second.

Compared with AVCQRCQARFSPAERIVNSNGELYHEHPFVCAQCFRPFPEGLFYEFEGRKYCEHDFQML [C28P], AVCQRCQARFSPAERIVNSNGELYHEHAFVCAQCFRPFPEGLFYEFEGRKYCEHDFQML [C28A] is higher in abundance fitness: -1.13 ± 0.35 for the first, -0.292 ± 0.083 for the second.

Compared with AVCQRCQARFSPAERIVNSNGELYHEHKFVCAQCFRPFPEGLFYEFEGRKYCEHDFQML [C28K], AVCQRCQARFSPAERIVNSNGELYHEHFFVCAQCFRPFPEGLFYEFEGRKYCEHDFQML [C28F] is lower in abundance fitness: -0.538 ± 0.14 for the first, -0.994 ± 0.22 for the second.

Work on AVCQRCQARFSPAERIVNSNGELYHEHQFVCAQCFRPFPEGLFYEFEGRKYCEHDFQML [C28Q] yielded an abundance fitness of -0.872 ± 0.19.
